Experimental data from PMC3398583, “Functional Cloning and Expression of the Schizophyllum commune Glucuronoyl Esterase Gene and Characterization of the Recombinant Enzyme” (Biotechnology Research International, 2012).

Substrate: COC(=O)[C@H]1O[C@H](O[C@H]2[C@H](Oc3ccc([N+](=O)[O-])cc3)OC[C@@H](O)[C@@H]2O)[C@H](O)[C@@H](O)[C@@H]1OC
Test: purified protein
Format: biochemical, Schizophyllum commune
Settings: 50 mM Na phosphate, pH 6.0, 0.08-0.4 mM substrate, 0.157 μM enzyme

B1: rScGE (recombinant Schizophyllum commune glucuronoyl esterase) (Schizophyllum commune H4-8) (protein)
chain: LSAALLAIAAFANVASAQDCDTPATVSGYSNSALPDPFTFNDGSPVTTAEDWECRRSQILALIQGYESGAAPPEPESVTGTASGNSLSVQVSYGGKSITFNNSITYPSGTAPAEGWPVIIAYEFPSLPIPSNVATLSFQNSAMGKQDSTSSRGQGLFYDLYGSSSNASAMTAWAWGVSRIIDAIESTPDAKLNPAAVGVTGCSRNGKGALMAGALEPRVALTLPQESGSGGDACWRLSRYEEQQGSQVQTATEIVGENCWFSAGFDQYVNNLDSLPYDHHLLAALVAPRGLISYANTDYVWLSGMSSFGCMTAAHAVYEALGVPENHGFEQVGGHSHCQWPSQLDGSLNAFINKFLLGQDVSTDYFESNNQFNGVTWSESQWINWETPTLN
notes: synthetic gene, all 393 residues except start Met (native signal peptide 1-19 in the construct); pGAPZalpha-A alpha-factor secretion, C-terminal myc and His tags; Pichia pastoris SMD1168; glycosylated, 53 kD (46 kD after N-glycosidase F)
B1 gave a Km of 250 µM and a kcat of 9.27 s⁻¹.
